The supplement of paper PMC7877785
± gives the uncertainty stated by the source.

Assay: self-splicing fitness, log relative to wild type (ln ratio); higher = more splicing; Tetrahymena group I intron in knt gene, E. coli kanamycin selection, DiMSum; sequences stand for … in CUCUCU…GGAGGGAAAAGUUAUCAGGCAUGCACCUGGUAGCUAGUCUUUAAACCAAUAGAUUGCAUCGGUUUAAAAGGCAAGACCGUCAAAUUGCGGGAAAGGGGUCAACAGCCGUUCAGUACCAAGUCUCAGGGGAAACUUUGAGAUGGCCUUGCAAAGGGUAUGGUAAUAAGCUGACGGACAUGGUCCUAACCACGCAGCCAAGUCCUAAGUCAACAGAUCUUCUGUUGAUAUGGAUGCAGUUCACAGACUAAAUGUCGGUCGGGGAAGAUGUAUUCUUCUCAUAAGAUAUAGUCGGACCUCUCCUUAAUGGGAGCUAGCGGAUGAAGUGAUGCAACACUGGAGCCGCUGGGAACUAAUUUGUAUGCGAAAGUAUAUUGAUUAGUUUUGGAGUACUCGUGGUCG
In short: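 Six replicate transformations of E. coli BL21(DE3) with a pET-22b(+) library were grown overnight at 37°C or 30°C. The library randomised all eight P1ex-region intron nucleotides, the intron lying in the knt kanamycin-resistance gene, and plates were LB agar with or without 25 μg/mL kanamycin plus 100 μg/mL carbenicillin, 50 μM IPTG and 0.2% rhamnose. Pooled colonies were amplicon-sequenced on an Illumina HiSeq 2500, and fitness is the DiMSum error-weighted combination of wild-type-normalised replicate fold changes, kanamycin versus none.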

| Sequence | self-splicing fitness (ln) (30 °C) | self-splicing fitness (ln) (37 °C) |
| --- | --- | --- |
| AAGUAGCAAUAUUACGGACA | -1.7 ± 0.12 | -0.343 ± 0.12 |
| AAGUAGCAAUAUUACGGAGA | -3.93 ± 0.37 | -2.34 ± 0.39 |
| AAGUAGCAAUAUUACGGCCU | -0.0359 ± 0.073 | -0.35 ± 0.091 |
| AAGUAGCAAUAUUACGGGCC | – | -1.88 ± 0.37 |
| AAGUAGCAAUAUUACGGUAU | -2.25 ± 0.097 | -1.88 ± 0.092 |
| AAGUAGCAAUAUUACGGUUU | -0.353 ± 0.064 | -0.458 ± 0.098 |
| AAGUAGCAAUAUUACGUAUA | -1.96 ± 0.13 | -2.15 ± 0.14 |
| AAGUAGCAAUAUUACGUUGA | -3.64 ± 0.32 | -2.29 ± 0.22 |
| AAGUAGCAAUAUUACGUUUU | -2.71 ± 0.13 | -2.17 ± 0.17 |
| AAUAAGCAAUAUUACGACGA | -0.785 ± 0.11 | -0.362 ± 0.14 |
| AAUAAGCAAUAUUACGAGGA | -3.05 ± 0.43 | -1.94 ± 0.33 |
| AAUAAGCAAUAUUACGAGGG | -3.7 ± 0.37 | -2.9 ± 0.34 |
| AAUAAGCAAUAUUACGCAGC | -3.5 ± 0.26 | -2.1 ± 0.23 |
| AAUAAGCAAUAUUACGCAUU | -2.97 ± 0.21 | -2.56 ± 0.28 |
| AAUAAGCAAUAUUACGCCAA | -2.17 ± 0.21 | -1.46 ± 0.18 |
| AAUAAGCAAUAUUACGCCAG | -1.88 ± 0.18 | -0.98 ± 0.25 |
| AAUAAGCAAUAUUACGCCGC | -2.65 ± 0.46 | -1.49 ± 0.28 |
| AAUAAGCAAUAUUACGCCUG | -0.724 ± 0.13 | 0.286 ± 0.17 |
| AAUAAGCAAUAUUACGCGGA | -2.57 ± 0.22 | -1.33 ± 0.19 |
| AAUAAGCAAUAUUACGCGUG | -0.604 ± 0.071 | -0.455 ± 0.089 |
| AAUAAGCAAUAUUACGGACC | -1.54 ± 0.12 | -0.72 ± 0.15 |
| AAUAAGCAAUAUUACGGCAA | -0.158 ± 0.09 | -0.3 ± 0.12 |
| AAUAAGCAAUAUUACGUAAA | -1.89 ± 0.1 | -1.22 ± 0.14 |
| AAUAAGCAAUAUUACGUCUU | 0.0603 ± 0.06 | -0.0919 ± 0.075 |

| Sequence | self-splicing fitness (ln) (30 °C) | self-splicing fitness (ln) (37 °C) |
| --- | --- | --- |
| AAUAAGCAAUAUUACGUGAU | -2.97 ± 0.14 | -1.23 ± 0.12 |
| AAUAAGCAAUAUUACGUGGA | -3.22 ± 0.22 | -2.42 ± 0.19 |
| AAUAAGCAAUAUUACGUGUA | -2.16 ± 0.12 | -1.12 ± 0.11 |
| AAUAAGCAAUAUUACGUGUC | -3 ± 0.14 | -0.777 ± 0.14 |
| AAUCAGCAAUAUUACGAAUA | 0.443 ± 0.16 | -0.266 ± 0.12 |
| AAUCAGCAAUAUUACGAAUC | -0.973 ± 0.1 | 0.372 ± 0.12 |
| AAUCAGCAAUAUUACGACUC | -0.0136 ± 0.086 | 0.129 ± 0.11 |
| AAUCAGCAAUAUUACGAGUA | -1.43 ± 0.081 | 0.415 ± 0.083 |
| AAUCAGCAAUAUUACGAUAG | -1.3 ± 0.1 | -0.239 ± 0.1 |
| AAUCAGCAAUAUUACGCACA | -0.245 ± 0.063 | 0.0601 ± 0.085 |
| AAUCAGCAAUAUUACGCGAU | -2.8 ± 0.14 | -2.07 ± 0.14 |
| AAUCAGCAAUAUUACGCUGG | -2.63 ± 0.099 | -2.87 ± 0.087 |
| AAUCAGCAAUAUUACGCUGU | -3.28 ± 0.14 | -1.59 ± 0.11 |
| AAUCAGCAAUAUUACGGAGC | -2.64 ± 0.17 | -0.807 ± 0.16 |
| AAUCAGCAAUAUUACGGCAC | -0.508 ± 0.086 | -0.24 ± 0.12 |
| AAUCAGCAAUAUUACGGCUU | 0.103 ± 0.067 | 0.17 ± 0.077 |
| AAUCAGCAAUAUUACGGGCG | -0.742 ± 0.059 | -0.382 ± 0.075 |
| AAUCAGCAAUAUUACGGUGU | 0.0362 ± 0.059 | 0.393 ± 0.072 |
| AAUCAGCAAUAUUACGUAAC | -1.33 ± 0.11 | -0.141 ± 0.11 |
| AAUCAGCAAUAUUACGUCGG | -1.88 ± 0.1 | -1.02 ± 0.14 |
| AAUCAGCAAUAUUACGUGCA | -0.181 ± 0.067 | 0.221 ± 0.084 |
| AAUCAGCAAUAUUACGUGGA | -0.585 ± 0.072 | -0.433 ± 0.076 |
| AAUCAGCAAUAUUACGUGUA | -0.538 ± 0.058 | 0.135 ± 0.068 |
| AAUCAGCAAUAUUACGUUAA | -0.816 ± 0.072 | -0.587 ± 0.077 |

| Sequence | self-splicing fitness (ln) (30 °C) | self-splicing fitness (ln) (37 °C) |
| --- | --- | --- |
| AAUGAGCAAUAUUACGAAGG | -2.56 ± 0.43 | -3.54 ± 0.43 |
| AAUGAGCAAUAUUACGAAGU | – | -2.16 ± 0.33 |
| AAUGAGCAAUAUUACGAGUA | -3.91 ± 0.25 | -2.54 ± 0.27 |
| AAUGAGCAAUAUUACGCAAA | – | -2.46 ± 0.48 |
| AAUGAGCAAUAUUACGCACA | -2.31 ± 0.29 | -1.38 ± 0.2 |
| AAUGAGCAAUAUUACGCCAC | -1.83 ± 0.22 | -2.41 ± 0.49 |
| AAUGAGCAAUAUUACGCCAU | -2.37 ± 0.39 | -1.9 ± 0.48 |
| AAUGAGCAAUAUUACGCCUA | -1.13 ± 0.21 | -1.62 ± 0.25 |
| AAUGAGCAAUAUUACGCCUU | -2.11 ± 0.13 | -1.43 ± 0.15 |
| AAUGAGCAAUAUUACGCGAC | – | -1.67 ± 0.48 |
| AAUGAGCAAUAUUACGCUAG | – | -1.93 ± 0.36 |
| AAUGAGCAAUAUUACGUAAC | -3.92 ± 0.27 | -2.45 ± 0.21 |
| AAUGAGCAAUAUUACGUGAU | -3.8 ± 0.29 | -0.708 ± 0.2 |
| AAUGAGCAAUAUUACGUUCA | -1.46 ± 0.12 | -0.27 ± 0.13 |
| AAUGAGCAAUAUUACGUUGG | -3.18 ± 0.23 | -3.55 ± 0.27 |
| AAUGAGCAAUAUUACGUUUC | -4.31 ± 0.24 | -2.98 ± 0.25 |
| AAUUAGCAAUAUUACGAAUC | -2.34 ± 0.16 | -0.829 ± 0.16 |
| AAUUAGCAAUAUUACGAAUG | -1.55 ± 0.12 | 0.187 ± 0.14 |
| AAUUAGCAAUAUUACGACCA | -0.406 ± 0.1 | 0.48 ± 0.12 |
| AAUUAGCAAUAUUACGACUC | -0.246 ± 0.11 | 0.0749 ± 0.16 |
| AAUUAGCAAUAUUACGAGUU | -1.48 ± 0.12 | -1.28 ± 0.15 |
| AAUUAGCAAUAUUACGAUAC | -1.24 ± 0.36 | -0.477 ± 0.21 |
| AAUUAGCAAUAUUACGAUGA | -0.632 ± 0.094 | -0.429 ± 0.11 |
| AAUUAGCAAUAUUACGCACA | 0.0525 ± 0.13 | -0.475 ± 0.15 |

| Sequence | self-splicing fitness (ln) (30 °C) | self-splicing fitness (ln) (37 °C) |
| --- | --- | --- |
| AAUUAGCAAUAUUACGCCAA | -2.13 ± 0.18 | -1.25 ± 0.2 |
| AAUUAGCAAUAUUACGCCCG | -1.04 ± 0.18 | 0.376 ± 0.28 |
| AAUUAGCAAUAUUACGCCCU | 0.0273 ± 0.1 | -0.313 ± 0.13 |
| AAUUAGCAAUAUUACGCUCC | -1.09 ± 0.36 | -0.0599 ± 0.35 |
| AAUUAGCAAUAUUACGGCUC | -0.532 ± 0.14 | 0.0268 ± 0.16 |
| AAUUAGCAAUAUUACGGUCG | -0.573 ± 0.099 | -0.259 ± 0.12 |
| AAUUAGCAAUAUUACGGUGA | -1.7 ± 0.084 | -0.534 ± 0.099 |
| AAUUAGCAAUAUUACGGUUA | -0.622 ± 0.11 | -0.183 ± 0.099 |
| AAUUAGCAAUAUUACGGUUC | -3.38 ± 0.22 | -2.65 ± 0.26 |
| AAUUAGCAAUAUUACGUAAA | -1.3 ± 0.11 | -0.736 ± 0.18 |
| AAUUAGCAAUAUUACGUAUU | -2.32 ± 0.18 | -0.913 ± 0.14 |
| AAUUAGCAAUAUUACGUGUA | -2.21 ± 0.15 | -1.41 ± 0.12 |
| AAUUAGCAAUAUUACGUUAC | -3.18 ± 0.15 | -1.74 ± 0.17 |
| ACAAAGCAAUAUUACGACCU | 0.0994 ± 0.076 | 0.311 ± 0.091 |
| ACAAAGCAAUAUUACGAGGA | -3.04 ± 0.2 | -2.07 ± 0.19 |
| ACAAAGCAAUAUUACGAGUU | -3.3 ± 0.099 | -1.68 ± 0.096 |
| ACAAAGCAAUAUUACGCAAG | -1.45 ± 0.079 | 0.00248 ± 0.087 |
| ACAAAGCAAUAUUACGCACC | -0.449 ± 0.19 | 0.128 ± 0.2 |
| ACAAAGCAAUAUUACGCACU | -0.0924 ± 0.069 | 0.264 ± 0.089 |
| ACAAAGCAAUAUUACGCAUU | -3.06 ± 0.095 | -1.56 ± 0.082 |
| ACAAAGCAAUAUUACGCCCC | -0.67 ± 0.27 | -0.241 ± 0.26 |
| ACAAAGCAAUAUUACGCGGU | -3.37 ± 0.13 | -2.68 ± 0.14 |
| ACAAAGCAAUAUUACGCUGU | -2.48 ± 0.14 | -3.01 ± 0.27 |
| ACAAAGCAAUAUUACGGAGA | -3.37 ± 0.19 | -2.39 ± 0.19 |
